Laboratory results published in patent US11202837B2, “Biological materials and uses thereof” (Antikor Biopharma Limited, priority 2014, dated 2021).

Tests used:
[1] = target: HER2 (Homo sapiens, UniProt P04626); assay: Biacore SPR binding to immobilised HER2; conditions: immobilised HER2
Experimental: The binding affinity against immobilised HER2 target antigen was determined by Biacore SPR compared to the unmodified scFv on a Biacore T200. A standard amine-coupling method was used to prepare all Biacore surfaces (CM5 or CM3), as follows. Flow cells were activated individually by injecting a freshly mixed solution of 0.2M EDC in 0.05 M NHS at 30 μl/min. […] Excess NHS ester was deactivated using a 1 M ethanolamine solution. To measure the kinetics of the antibody and conjugate on the HER2 chip, a […] serial dilution (typically at 5, 2.5, 1.25, 0.6 μg/ml or lower for free antibody and 20, 10, 5, 2.5 μg/ml for the conjugates), was injected for 160 s at 30 μl/min, allowing a 900-s dissociation phase. The dissociation time was extended to 3600 s for the highest concentration. Surfaces were regenerated with 45 s injection of MgCl2 8M.
To evaluate binding ability, manual runs were performed at 30 μl/min with a 60 s injection of the desired compound followed by 60 s waiting time and a 45 s of regeneration at 10 μl/min using MgCl2 8M. All data was analysed using the software, BIAEvaluation.

[2] = Aggregation by HPLC size-exclusion chromatography; format: physicochemical; conditions: for aggregation by HPLC-SEC (in words): purified or analysed conjugate vs unconjugated antibody
Experimental: Aggregation can be tested by analytical size-exclusion HPLC measuring the percentage of high molecular weight material compared to the conjugate eluting at a retention time characteristic of a monomeric conjugate.
Typically, 20 μg of protein was injected for analytical runs and 300 μg for semi-preparative runs.

Molecule | association rate [1] [M⁻¹ s⁻¹] | dissociation rate [1] [s⁻¹] | aggregation by HPLC-SEC (in words) [2] | aggregation by HPLC-SEC [2]
scFv (TCT1067)-Acetate DAR 16 (conjugate) scFv: SGSGGSGQVQLVQSGAEVKKPGESLKISCKGSGYSFTSYWIAWVRQMPGKGLEYMGLIYPGDSDTKYSPSFQGQVTISVDKSVSTAYLQWSSLKPSDSAVYFCARHDVGYCTDRTCAAWPEWLGVWGQGTLVTVSSGGGGSGGGGSGGGGSQSVLTQPPSVSAAPGQKVTISCSGSSSNIGNNYVSWYQQLPGTAPKLLIYGHTNRPAGVPDRFSGSKSGTSASLAISGFRSEDEADYYCASWDYTLSGWVFGGGTKLTVLMASMTGGQQMG | 3.63e+06 | 7.64e-05 | no aggregation | –
scFv (TCT1067)-DM1-dPEG12 DAR 8 (conjugate) scFv: SGSGGSGQVQLVQSGAEVKKPGESLKISCKGSGYSFTSYWIAWVRQMPGKGLEYMGLIYPGDSDTKYSPSFQGQVTISVDKSVSTAYLQWSSLKPSDSAVYFCARHDVGYCTDRTCAAWPEWLGVWGQGTLVTVSSGGGGSGGGGSGGGGSQSVLTQPPSVSAAPGQKVTISCSGSSSNIGNNYVSWYQQLPGTAPKLLIYGHTNRPAGVPDRFSGSKSGTSASLAISGFRSEDEADYYCASWDYTLSGWVFGGGTKLTVLMASMTGGQQMG | 13200 | 3.28e-05 | – | 4% aggregates
scFv (TCT1067)-P5-C5 DAR 10.9 (conjugate) scFv: SGSGGSGQVQLVQSGAEVKKPGESLKISCKGSGYSFTSYWIAWVRQMPGKGLEYMGLIYPGDSDTKYSPSFQGQVTISVDKSVSTAYLQWSSLKPSDSAVYFCARHDVGYCTDRTCAAWPEWLGVWGQGTLVTVSSGGGGSGGGGSGGGGSQSVLTQPPSVSAAPGQKVTISCSGSSSNIGNNYVSWYQQLPGTAPKLLIYGHTNRPAGVPDRFSGSKSGTSASLAISGFRSEDEADYYCASWDYTLSGWVFGGGTKLTVLMASMTGGQQMG | – | 7.13e-05 | no aggregation | –
scFv (TCT1067)-DM1-dPEG12 DAR 7 (conjugate) scFv: SGSGGSGQVQLVQSGAEVKKPGESLKISCKGSGYSFTSYWIAWVRQMPGKGLEYMGLIYPGDSDTKYSPSFQGQVTISVDKSVSTAYLQWSSLKPSDSAVYFCARHDVGYCTDRTCAAWPEWLGVWGQGTLVTVSSGGGGSGGGGSGGGGSQSVLTQPPSVSAAPGQKVTISCSGSSSNIGNNYVSWYQQLPGTAPKLLIYGHTNRPAGVPDRFSGSKSGTSASLAISGFRSEDEADYYCASWDYTLSGWVFGGGTKLTVLMASMTGGQQMG | 19500 | 2.7e-05 | – | 1% aggregates
scFv (TCT)-Acetate DAR 15 (conjugate) scFv: SGSGGSGQVQLVQSGAEVKKPGESLKISCKGSGYSFTSYWIAWVRQMPGKGLEYMGLIYPGDSDTKYSPSFQGQVTISVDKSVSTAYLQWSSLKPSDSAVYFCARHDVGYCSSSNCAAWPEYFQHWGQGTLVTVSSGGGGSGGGGSGGGGSQSVLTQPPSVSAAPGQKVTISCSGSSSNIGNNYVSWYQQLPGTAPKLLIYGHTNRPAGVPDRFSGSKSGTSASLAISGFRSEDEADYYCAAWDDSLSGWVFGGGTKLTVLMASMTGGQQMG | 5.93e+06 | 0.0171 | no aggregation | –
scFv (TCT)-MMAF-C5 DAR 6.8 (conjugate) scFv: SGSGGSGQVQLVQSGAEVKKPGESLKISCKGSGYSFTSYWIAWVRQMPGKGLEYMGLIYPGDSDTKYSPSFQGQVTISVDKSVSTAYLQWSSLKPSDSAVYFCARHDVGYCSSSNCAAWPEYFQHWGQGTLVTVSSGGGGSGGGGSGGGGSQSVLTQPPSVSAAPGQKVTISCSGSSSNIGNNYVSWYQQLPGTAPKLLIYGHTNRPAGVPDRFSGSKSGTSASLAISGFRSEDEADYYCAAWDDSLSGWVFGGGTKLTVLMASMTGGQQMG | 1.2e+06 | 0.0042 | no aggregation | 17%
scFv (TCT)-MMAF-C5 1 DAR 5.6 (conjugate) scFv: SGSGGSGQVQLVQSGAEVKKPGESLKISCKGSGYSFTSYWIAWVRQMPGKGLEYMGLIYPGDSDTKYSPSFQGQVTISVDKSVSTAYLQWSSLKPSDSAVYFCARHDVGYCSSSNCAAWPEYFQHWGQGTLVTVSSGGGGSGGGGSGGGGSQSVLTQPPSVSAAPGQKVTISCSGSSSNIGNNYVSWYQQLPGTAPKLLIYGHTNRPAGVPDRFSGSKSGTSASLAISGFRSEDEADYYCAAWDDSLSGWVFGGGTKLTVLMASMTGGQQMG | 770000 | 0.0042 | no aggregation | –
